Experimental data taken from US20250129165A1 (IMCHECK THERAPEUTICS, published 2025).

Tests used:
[1] = target: T1, cynomolgus BTN3A as expressed on cynomolgus PBMCs (cynomolgus); test: flow cytometry on cynomolgus PBMCs
T1 construct: whole, on cells; also called Cyno PBMC

[2] = target: human BTN3A1 antigen (Sino Biological cat. no. 15973-H08H) (human, UniProt O00481 30-254); test: SPR, Biacore T200 multi-cycle kinetics; antibody captured on Protein A, BTN3A1 as analyte
Chain of human BTN3A1 antigen (Sino Biological cat. no. 15973-H08H) (O00481 30-254 limits assumed): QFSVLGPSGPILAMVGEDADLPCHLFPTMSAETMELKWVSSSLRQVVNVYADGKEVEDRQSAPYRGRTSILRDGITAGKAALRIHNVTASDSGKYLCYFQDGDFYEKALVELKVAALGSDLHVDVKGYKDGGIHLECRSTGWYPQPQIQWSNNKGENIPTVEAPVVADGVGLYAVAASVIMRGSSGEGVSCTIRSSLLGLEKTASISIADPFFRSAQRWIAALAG

EC50 [1]: 5.74 mg/L
Kd [2]: 0.319 nM
B1: mAb 3, humanized form of mAb 20.1 (antibody, human IgG1, kappa, V domains shown)
VH: QVQLVQSGAEVKKPGASVKVSCKASGYTFTRYYLYWVKQRPGQGLEWIGEINPNNGGTKFNEKFKSRATMTVDKSTRTTYMELSSLRSEDTAVYYCSREDDYDGTPDAMDYWGQGTLVTVSS
VL: DIQMTQSPSSLSASVGDRVTITCHASQNINLWLSWYQQKPGKAPKLLIYRASNLHTGVPSRFSGSGSATDFTFTISSLQPEDIATYYCQQGHSYPYTFGGGTKVDIKR
notes: also called 20.1 Humanized mAb 3; humanized mAb 20.1
